Experimental findings from PMC3448830 are described below.

In general, Km refers to the concentration of substrate that gives half-maximal velocity. A word on the kcat: it is the number of substrate molecules converted per active site and unit of time at saturation. A word on the kcat/Km: it is the second-order rate constant that governs catalysis at low substrate concentration.

What all share (details): other: substrate, Hanes-Woolf plots, pH 8.5, room temperature, 16 h
The subject of data set [1] is NCCCC(=O)O. The data set can be described thus: purified protein, by the assay type.
The test system of data set [2] is NCc1c[nH]c(C(=O)O)c1. The data set can be described thus: Substrate activity for GABA-AT. It is filed as biochemical, pig.
The test system of data set [3] is NCc1csc(C(=O)O)c1. The data set can be described thus: Substrate activity for GABA-AT. It is filed as biochemical, pig.
Data set [4] has as its system NCc1coc(C(=O)O)c1. The data set can be described thus: Substrate activity for GABA-AT. It is filed as biochemical, pig.
Data set [5] relates to NCc1ccc(C(=O)O)s1. The data set can be described thus: Substrate activity for GABA-AT. It is filed as biochemical, pig.
The subject of data set [6] is NCc1cocc1C(=O)O. As to the kind of experiment: Substrate activity for GABA-AT. It is filed as biochemical, pig.
The test system of data set [7] is NCc1ccc(C(=O)O)[nH]1. As to the kind of experiment: Substrate activity for GABA-AT. It is filed as biochemical, pig.
Data set [8] has as its system NCc1ccc(C(=O)O)o1. The data set can be described thus: Substrate activity for GABA-AT. It is filed as biochemical, pig.

Consider GABA-AT (Sus scrofa), for which the Km was 1300 ± 300 µM in data set [1]; 1400 ± 300 µM in data set [2]; 1700 ± 300 µM in data set [3]; 310 ± 70 µM in data set [4]; 6300 ± 200 µM in data set [5]; 2800 ± 500 µM in data set [6]. Also, the results for the Km in data set [7] and in data set [8] were 9500 ± 300 µM and 2100 ± 100 µM, respectively. Further, the catalytic constant (kcat) in data set [1] amounted to 0.817 s⁻¹; in data set [2], 5.67e-05 ± 5e-06 s⁻¹; in data set [4], 3.83e-05 ± 1.67e-06 s⁻¹; in data set [5], 0.000167 ± 5e-05 s⁻¹; in data set [6], 1.38e-05 ± 8.33e-07 s⁻¹; in data set [7] it was 2.5e-05 ± 3.33e-06 s⁻¹. The kcat in data set [8] was 0.000567 ± 6.67e-05 s⁻¹. Besides, the kcat/Km amounted to 643 M⁻¹ s⁻¹ in data set [1]; 0.04 M⁻¹ s⁻¹ in data set [2]; 0.123 M⁻¹ s⁻¹ in data set [4]; 0.0267 M⁻¹ s⁻¹ in data set [5]; 0.005 M⁻¹ s⁻¹ in data set [6]; 0.00267 M⁻¹ s⁻¹ in data set [7]. Besides, the specificity constant (kcat/Km) in data set [8] came out at 0.267 M⁻¹ s⁻¹.
